Laboratory results from PMC3074231 (Journal of neurochemistry, 2011).
Several values for one entry are separate records, joined by “and”; a condition that tells them apart may be missing. Equal entries are not always repeated.

Key:
[1] = molecular target: STEP46 (cytosolic isoform of STEP), wild type
co-IP [2] = molecular target: the molecule itself; assay: co-IP
co-IP [3] = molecular target: the molecule itself; assay: co-IP; remark: listed apart in the source

Row | phosphatase activity of STEP46 in the presence of H2O2, % of control [1] | Molecule | co-immunoprecipitated STEP61-myc, % of WT control (co-IP [2]) | co-immunoprecipitated STEP61-myc, % of untreated WT control (10 mM H2O2, 5 min) (co-IP [3])
1 | 40.3 % of control | STEP46 (cytosolic isoform of STEP), wild type (enzyme) |  | 
2 |  | STEP61 Cys 65 to Ser (enzyme, UniProt P54830-1 1-541, looked up) MCCSERLLGLPQPVEMEAPDEAEGLPSKQKEMPPPPPPSPPSEPAQKLPPQGAGSHSLTVRSSLSLFAASQFLLACGVLWLSGHGHSWLQNTTDLISSSLTVLNHLGPVAWLGSGTWGIPSLLLVSLTVSLVIVTTLVWHLLKAPPEPPAPLPPEDRRQSVSRQPSFTYSEWMEEKVEDDFLDLDAVPETPVFDCVMDIKPETDPASLTVKSMGLQERRGSNVSLTLDMCTPGCNEEGFGYLVSPREESAHEYLLSASRVLRAEELHEKALDPFLLQAEFFEIPMNFVDPKEYDIPGLVRKNRYKTILPNPHSRVRLTSPDPEDPLSSYINANYIRGYSGEEKVYIATQGPIVSTVADFWRMVWQERTPIIVMITNIEEMNEKCTEYWPEEQVVHDGVEITVQKVIHTEDYRLRLISLRRGTEERSLKHYWFTSWPDQKTPDRAPPLLHLVREVEEAAQQEGPHCSPIIVHCSAGIGRTGCFIATSICCQQLRREGVVDILKTTCQLRQDRGGMIQTCEQYQFVHHAMSLYEKQLSLQSSE | 38.4 % of control | 
3 |  | STEP61 (STriatal Enriched Phosphatase, membrane associated isoform), wild type (enzyme, UniProt P54830-1 1-541, looked up) MCCSERLLGLPQPVEMEAPDEAEGLPSKQKEMPPPPPPSPPSEPAQKLPPQGAGSHSLTVRSSLCLFAASQFLLACGVLWLSGHGHSWLQNTTDLISSSLTVLNHLGPVAWLGSGTWGIPSLLLVSLTVSLVIVTTLVWHLLKAPPEPPAPLPPEDRRQSVSRQPSFTYSEWMEEKVEDDFLDLDAVPETPVFDCVMDIKPETDPASLTVKSMGLQERRGSNVSLTLDMCTPGCNEEGFGYLVSPREESAHEYLLSASRVLRAEELHEKALDPFLLQAEFFEIPMNFVDPKEYDIPGLVRKNRYKTILPNPHSRVRLTSPDPEDPLSSYINANYIRGYSGEEKVYIATQGPIVSTVADFWRMVWQERTPIIVMITNIEEMNEKCTEYWPEEQVVHDGVEITVQKVIHTEDYRLRLISLRRGTEERSLKHYWFTSWPDQKTPDRAPPLLHLVREVEEAAQQEGPHCSPIIVHCSAGIGRTGCFIATSICCQQLRREGVVDILKTTCQLRQDRGGMIQTCEQYQFVHHAMSLYEKQLSLQSSE |  | 232 % of WT control
4 |  | STEP61 Cys 76 to Ser (enzyme, UniProt P54830-1 1-541, looked up) MCCSERLLGLPQPVEMEAPDEAEGLPSKQKEMPPPPPPSPPSEPAQKLPPQGAGSHSLTVRSSLCLFAASQFLLASGVLWLSGHGHSWLQNTTDLISSSLTVLNHLGPVAWLGSGTWGIPSLLLVSLTVSLVIVTTLVWHLLKAPPEPPAPLPPEDRRQSVSRQPSFTYSEWMEEKVEDDFLDLDAVPETPVFDCVMDIKPETDPASLTVKSMGLQERRGSNVSLTLDMCTPGCNEEGFGYLVSPREESAHEYLLSASRVLRAEELHEKALDPFLLQAEFFEIPMNFVDPKEYDIPGLVRKNRYKTILPNPHSRVRLTSPDPEDPLSSYINANYIRGYSGEEKVYIATQGPIVSTVADFWRMVWQERTPIIVMITNIEEMNEKCTEYWPEEQVVHDGVEITVQKVIHTEDYRLRLISLRRGTEERSLKHYWFTSWPDQKTPDRAPPLLHLVREVEEAAQQEGPHCSPIIVHCSAGIGRTGCFIATSICCQQLRREGVVDILKTTCQLRQDRGGMIQTCEQYQFVHHAMSLYEKQLSLQSSE | 35.2 % of control | 
5 |  | STEP61 C65S/C76S (enzyme, UniProt P54830-1 1-541, looked up) MCCSERLLGLPQPVEMEAPDEAEGLPSKQKEMPPPPPPSPPSEPAQKLPPQGAGSHSLTVRSSLSLFAASQFLLASGVLWLSGHGHSWLQNTTDLISSSLTVLNHLGPVAWLGSGTWGIPSLLLVSLTVSLVIVTTLVWHLLKAPPEPPAPLPPEDRRQSVSRQPSFTYSEWMEEKVEDDFLDLDAVPETPVFDCVMDIKPETDPASLTVKSMGLQERRGSNVSLTLDMCTPGCNEEGFGYLVSPREESAHEYLLSASRVLRAEELHEKALDPFLLQAEFFEIPMNFVDPKEYDIPGLVRKNRYKTILPNPHSRVRLTSPDPEDPLSSYINANYIRGYSGEEKVYIATQGPIVSTVADFWRMVWQERTPIIVMITNIEEMNEKCTEYWPEEQVVHDGVEITVQKVIHTEDYRLRLISLRRGTEERSLKHYWFTSWPDQKTPDRAPPLLHLVREVEEAAQQEGPHCSPIIVHCSAGIGRTGCFIATSICCQQLRREGVVDILKTTCQLRQDRGGMIQTCEQYQFVHHAMSLYEKQLSLQSSE | 13.5 % of control and 16.6 % of WT control | 39.4 % of WT control
